The target in one experiment is T1, hERα-LBD (Homo sapiens, UniProt P03372).
T1 construct: made in house; host or cells: E. coli BL21(DE3)pLysS
T1 sequence (P03372 297-554): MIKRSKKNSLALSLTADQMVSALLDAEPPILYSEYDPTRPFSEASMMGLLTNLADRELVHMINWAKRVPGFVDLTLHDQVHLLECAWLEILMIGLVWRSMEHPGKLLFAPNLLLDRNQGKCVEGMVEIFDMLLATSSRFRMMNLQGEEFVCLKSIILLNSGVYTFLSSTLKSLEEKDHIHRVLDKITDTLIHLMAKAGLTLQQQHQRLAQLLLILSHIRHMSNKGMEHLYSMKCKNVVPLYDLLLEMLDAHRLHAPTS
Nature of the experiment: Electrophoretic mobility shift assay with purified hERα-LBD. In kind it is binding. The following applies: 2-fold or 10-fold molar excess of peptide, 6% native PAGE. How it is done: An electrophoretic mobility shift assay was used to directly assess the ability of the NR-box 2 peptide to bind the purified ERα LBD in the presence of either DES or OHT. Eight microgram samples of purified hERα-LBD bound to either DES or OHT were incubated in the absence of the peptide, i.e., buffer alone, or in the presence of either a 2-fold or 10-fold molar excess of the GRIP1 NR-box 2 peptide. The binding reactions were performed on ice for 45 minutes in 10 μl of buffer containing 20 mM Tris, pH 8.1, 1 mM DTT, and 200 mM NaCl and then subjected to 6% native PAGE. Gels were stained with GELCODE Blue Stain reagent (Pierce).

The target of experiment [1] is T2, hTRβ LBD (Homo sapiens, UniProt P10828).
T2 sequence (P10828 202-461): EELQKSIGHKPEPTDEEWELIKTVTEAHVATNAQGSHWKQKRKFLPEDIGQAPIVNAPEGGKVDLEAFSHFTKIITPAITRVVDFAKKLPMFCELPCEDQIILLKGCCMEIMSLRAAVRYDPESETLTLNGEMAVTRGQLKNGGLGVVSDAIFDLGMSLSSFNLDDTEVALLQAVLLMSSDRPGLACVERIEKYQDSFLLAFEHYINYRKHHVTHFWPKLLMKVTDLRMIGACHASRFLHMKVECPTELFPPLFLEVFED
Nature of the experiment: Peptide competition of GRIP1 (563-767) interaction with hTRβ LBD. Also noted: made in house; host or cells: TR LBD: in vitro translation (reticulocyte lysate); GST-GRIP1 fragment: E. coli HB101. The format is binding. The method, then:
(§1) For in vitro binding studies GR, TR and their derivatives were translated in the presence of [^35S]methionine using the TNT Coupled Reticulocyte System (Promega). Separate translations were performed in the presence and absence of 10 μM dexamethasone or 1 μM RU486 for GR and 10 μM triiodothyronine for TR. Expression was quantified by phosphoimager analysis (BAS2000, Fuji). For all binding assays 50 μl of a 20% bead suspension containing either 1.6 or 4.0 μM bound purified GST GRIP1 fragment (either 568-767 or 563-1121) was incubated with 0.2 μl or 1.4 μl in vitro transcribed and translated TR or GR, respectively. Binding was performed in the binding buffer described above supplemented with 20 μg/ml BSA and appropriate hormone. The chosen GST GRIP1 fragment concentrations were sufficient to bind either 70 or 100% of the TR derivatives. The reaction was incubated at 4° C. under rotation for 2 hours. In case of competition experiments, the appropriate concentration of peptides were added to the reaction before addition of receptors. However, no differences in the results were noted by adding the peptides after half of the incubation of the GST GRIP1 fragment with nuclear receptors. […] Beads were washed five times with 200 μl binding buffer+BSA at 4° C. before elution of the bound proteins in 20 μl SDS loading buffer. Eluted beads and input labeled protein were subjected to SDS-PAGE. The fraction of bound nuclear receptors was determined by phosphoimager analysis.

The target of experiment [2] is T2, hTRβ LBD. In words: GST-GRIP1 fragment pull-down of TR. In kind it is binding. The arrangement: made in house; host or cells: in vitro translation (TNT Coupled Reticulocyte System, Promega). The method, then: For in vitro binding studies GR, TR and their derivatives were translated in the presence of [^35S]methionine using the TNT Coupled Reticulocyte System (Promega). Separate translations were performed in the presence and absence of 10 μM dexamethasone or 1 μM RU486 for GR and 10 μM triiodothyronine for TR. Expression was quantified by phosphoimager analysis (BAS2000, Fuji). For all binding assays 50 μl of a 20% bead suspension containing either 1.6 or 4.0 μM bound purified GST GRIP1 fragment (either 568-767 or 563-1121) was incubated with 0.2 μl or 1.4 μl in vitro transcribed and translated TR or GR, respectively. Binding was performed in the binding buffer described above supplemented with 20 μg/ml BSA and appropriate hormone. The chosen GST GRIP1 fragment concentrations were sufficient to bind either 70 or 100% of the TR derivatives. The reaction was incubated at 4° C. under rotation for 2 hours. In case of competition experiments, the appropriate concentration of peptides were added to the reaction before addition of receptors. However, no differences in the results were noted by adding the peptides after half of the incubation of the GST GRIP1 fragment with nuclear receptors. […] The fraction of bound nuclear receptors was determined by phosphoimager analysis.

A further experiment relates to GR. In words: GST-GRIP1 fragment pull-down of GR. The format is binding. How it is done:
as §1

In another experiment the target is T3, hERα V376R mutant (Homo sapiens, UniProt P03372, V376R).
T3 construct: expression vector encoding full-length hERα, pSG5-er HEGO (WT or mutants); made in house; host or cells: hERα: in vitro translation implied by the [35S] label; GST-GRIP1: E. coli HB101
T3 sequence (P03372 1-595 V376R): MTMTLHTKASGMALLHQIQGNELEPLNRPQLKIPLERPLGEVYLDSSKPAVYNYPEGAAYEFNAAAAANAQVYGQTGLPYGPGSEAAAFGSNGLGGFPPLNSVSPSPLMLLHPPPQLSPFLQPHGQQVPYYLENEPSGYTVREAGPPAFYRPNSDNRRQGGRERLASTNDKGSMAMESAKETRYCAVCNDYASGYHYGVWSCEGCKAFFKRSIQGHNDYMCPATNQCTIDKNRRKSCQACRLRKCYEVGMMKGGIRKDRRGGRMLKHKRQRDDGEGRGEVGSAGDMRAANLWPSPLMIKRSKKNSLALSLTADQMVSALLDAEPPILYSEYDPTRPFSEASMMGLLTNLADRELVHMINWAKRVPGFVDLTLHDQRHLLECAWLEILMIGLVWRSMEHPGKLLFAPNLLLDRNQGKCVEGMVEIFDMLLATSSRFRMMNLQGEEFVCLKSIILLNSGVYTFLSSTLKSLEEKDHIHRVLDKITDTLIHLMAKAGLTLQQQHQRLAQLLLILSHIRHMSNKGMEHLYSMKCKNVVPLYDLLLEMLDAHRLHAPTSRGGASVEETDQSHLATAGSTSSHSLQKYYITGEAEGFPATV
In words: In vitro binding of [35S]-labeled hERα mutant to GST-GRIP1. The following applies: percentage of WT hERα. How it is done: Beads were washed 3 times with 1 ml of binding buffer and the bound proteins were separated using 10% SDS-PAGE and visualized by autoradiography. Binding was quantitated by phosphorimaging using ImageQuant (Molecular Dynamics).

For a further experiment, the target named is MDM2 (Homo sapiens, UniProt Q00987). Nature of the experiment: GRIP1 interaction with MDM2. The format is binding. The following applies: data not shown.
Chain of MDM2 (Q00987 whole entry, species assumed): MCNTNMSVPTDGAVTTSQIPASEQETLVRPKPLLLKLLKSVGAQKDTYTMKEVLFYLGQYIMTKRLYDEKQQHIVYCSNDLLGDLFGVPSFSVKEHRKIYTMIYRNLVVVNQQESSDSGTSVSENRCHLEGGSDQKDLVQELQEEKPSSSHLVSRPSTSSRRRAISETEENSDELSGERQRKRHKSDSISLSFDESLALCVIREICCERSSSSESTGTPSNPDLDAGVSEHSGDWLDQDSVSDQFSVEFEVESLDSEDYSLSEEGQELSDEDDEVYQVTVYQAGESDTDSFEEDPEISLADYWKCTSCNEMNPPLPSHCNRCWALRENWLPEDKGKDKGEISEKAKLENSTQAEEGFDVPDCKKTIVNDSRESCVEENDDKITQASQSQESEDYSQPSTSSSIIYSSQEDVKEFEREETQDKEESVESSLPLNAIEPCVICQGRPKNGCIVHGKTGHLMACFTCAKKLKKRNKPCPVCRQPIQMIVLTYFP
Another experiment has as its target T4, TAFII31 (Homo sapiens, UniProt Q16594).
T4 sequence (Q16594 1-264): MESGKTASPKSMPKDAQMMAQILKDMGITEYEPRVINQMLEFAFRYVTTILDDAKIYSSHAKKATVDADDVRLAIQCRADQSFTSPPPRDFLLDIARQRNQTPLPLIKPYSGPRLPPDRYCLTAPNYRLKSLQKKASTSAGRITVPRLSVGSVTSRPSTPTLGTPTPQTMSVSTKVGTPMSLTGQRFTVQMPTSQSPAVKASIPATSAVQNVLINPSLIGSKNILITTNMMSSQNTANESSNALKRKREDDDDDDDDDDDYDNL
In words: GRIP1 interaction with TAFII31. The format is binding. The following applies: data not shown.

Ends that are not written are not given here.

As to “686-KHKILHRLLQDSS-698 (not fully specified; printed as 686-KHKILHRLLQDSS-698; listed as Homo sapiens) [GRIP1 NR-box 2 peptide]”, in the experiment with hERα-LBD, the “migration of DES-hERα-LBD complex in presence of peptide” value is recorded as “retarded” and the “mobility of OHT-hERα-LBD complex on peptide addition” value is reported as “no effect”.
Regarding “ILHRLL (MUTAGEN (15)..(15) Ile --> Ala; listed as Homo sapiens) [peptide consisting of the NR-box 2]”, the “competition with TR LBD interaction with GRIP1 (563-767)” value (“competition with TR LBD interaction” below) with hTRβ LBD [1] is on record as “does not sufficiently compete”.
KENALLRYLLDKDDTKD: the “competition with TR LBD interaction” value with hTRβ LBD [1] is given as “increased affinity”.
Still for that read-out and setting: next, “LLRYLL (listed as Homo sapiens) [minimal motif of NR-box 3]”: “does not compete”.
Regarding “NR-box 3: GST-GRIP1 (563-767) with hydrophobic residues of NR-box 2 replaced with alanine; NR-box 3 functional (ENALLRYLLDKDD)”, the “loss of TR binding” value with hTRβ LBD [2] (hydrophobic residues of the NR-box replaced with alanine) is listed as “about 50%”. Further, the “binding of GR to GRIP1 fragment” value with GR was “binds most strongly”.
On to PKKKENALLRYLLDKDDTKD, for which, in the experiment with hTRβ LBD [1], the “competition with TR LBD interaction” value is given as “increased affinity”.
On the same count and under the same terms, with TSLKEKHKILHRLLQDS the entry was “increased affinity”.
Turning to TSLKEKHKLLRYLLQDSS, the “competition with TR LBD interaction” value with hTRβ LBD [1] was “binds like a NR-box 2 peptide”.

B1: GRIP1 (563-767): fragment of GRIP1 containing all three NR-boxes, used as GST-fusion (protein)
chain: QNSPVNMNPPPLSKMGSLDSKDCFGLYGEPSEGTTGQAEASCHPEEQKGPNDSSMPQAASGDRAEGHSRLHDSKGQTKLLQLLTTKSDQMEPSPLPSSLSDTNKDSTGSLPGPGSTHGTSLKEKHKILHRLLQDSSSPVDLAKLTAEATGKELSQESSSTAPGSEVTVKQEPASPKKKENALLRYLLDKDDTKDIGLPEITPKLEHHHHHH
modifications: left off: a dimerising Fc or GST
notes: fragment of GRIP1 containing all three NR-boxes, used as GST-fusion
B1: the “binding of TR to GST-GRIP1 (563-767) fragment” value with hTRβ LBD [2] (NR-box hydrophobic residues replaced with alanine where mutant) is reported as “strongly binds TR”. Also, in the experiment on GR, the “affinity of GR for GRIP1 (563-767) relative to a comparable amount of TR” value is “about one-fifth” and the “binding of GR to GRIP1 fragment” value was “found to bind”.

B2: GRIP1 (563-1121): GRIP1 (563-767) extended to residue 1121, GST fragment (protein)
chain: QNSPVNMNPPPLSKMGSLDSKDCFGLYGEPSEGTTGQAEASCHPEEQKGPNDSSMPQAASGDRAEGHSRLHDSKGQTKLLQLLTTKSDQMEPSPLPSSLSDTNKDSTGSLPGPGSTHGTSLKEKHKILHRLLQDSSSPVDLAKLTAEATGKELSQESSSTAPGSEVTVKQEPASPKKKENALLRYLLDKDDTKDIGLPEITPKLERLDSKTDPASNTKLIAMKTVKEEVSFEPSDQPGSELDNLEEILDDLQNSQLPQLFPDTRPGAPTGSVDKQAIINDLMQLTADSSPVPPAGAQKAALRMSQSTFNNPRPGQLGRLLPNQNLPLDITLQSPTGAGPFPPIRNSSPYSVIPQPGMMGNQGMLGSQGNLGNNSTGMIGSSTSRPSMPSGEWAPQSPAVRVTCAATTGAMNRPVQGGMIRNPTASIPMRANSQPGQRQMLQSQVMNIGPSELEMNMGGPQYNQQQAPPNQTAPWPESILPIDQASFASQNRQPFGSSPDDLLCPHPAAESPSDEGALLDQLYLALRNFDGLEEIDRALGIPELVSQSQAVDAEQFSSQE
modifications: left off: a dimerising Fc or GST
notes: GRIP1 (563-767) extended to residue 1121, GST fragment
For the molecule B2, in the experiment on GR, the “increase of binding to GR on extension of GRIP1 (563-767) to residue 1121” value is “about 3 fold”. In the experiment on GR (GR deletion mutant lacking N-terminal AF-1 versus full length GR, no ligand), the “increase of binding of GR to GRIP1 (563-1121) in the absence of ligand” value is listed as “about 10 fold”.

B3: GRIP1: mouse p160 coactivator protein (protein)
chain: QNSPVNMNPPPLSKMGSLDSKDCFGLYGEPSEGTTGQAEASCHPEEQKGPNDSSMPQAASGDRAEGHSRLHDSKGQTKLLQLLTTKSDQMEPSPLPSSLSDTNKDSTGSLPGPGSTHGTSLKEKHKILHRLLQDSSSPVDLAKLTAEATGKELSQESSSTAPGSEVTVKQEPASPKKKENALLRYLLDKDDTKDIGLPEITPKLE
As to B3, the “residual GRIP1 binding” value in the experiment with hERα V376R mutant worked out at 10%. In addition, in the experiment with MDM2, the “interaction with MDM2” value was “no interaction was detected”. In addition, the “interaction with TAFII31” value with TAFII31 is listed as “no interaction was detected”.

These data come from patent US6965850B2, “Methods for modulating nuclear receptor coactivator binding” (The Regents of the University of California, priority 1998, dated 2005).
